Measurements as given in US20250382344A1, “Soluble GLP1/GIP/NPY2 Receptor Triple Agonists” (Boehringer Ingelheim International GmH, priority 2024, published 2025).
Positions count from the first letter of the chain named. *1 amine or outer side, *2 acyl side, *3 side chain or, on linkers, in order; H or OH if unused. Where no end group is shown, it is not given here. Side-chain parts run from the residue outwards. [ ]: non-standard residue; d: D form. The star is where a group is joined. C20 diacid = O=C(O)CCCCCCCCCCCCCCCCCCC(=O)*; C18 diacid = O=C(O)CCCCCCCCCCCCCCCCC(=O)*; γGlu = O=C(O)[C@H](CCC(=O)[*:2])N[*:1]; εLys = N[C@@H](CCCCN[*:1])C(=O)[*:2]; TRX = not defined here; AEEA = NCCOCCOCC(=O)O; Aib = CC(C)(N)C(=O)O

T1: human GIP receptor (human, UniProt P48546 22-466)
T1 sequence (looked up): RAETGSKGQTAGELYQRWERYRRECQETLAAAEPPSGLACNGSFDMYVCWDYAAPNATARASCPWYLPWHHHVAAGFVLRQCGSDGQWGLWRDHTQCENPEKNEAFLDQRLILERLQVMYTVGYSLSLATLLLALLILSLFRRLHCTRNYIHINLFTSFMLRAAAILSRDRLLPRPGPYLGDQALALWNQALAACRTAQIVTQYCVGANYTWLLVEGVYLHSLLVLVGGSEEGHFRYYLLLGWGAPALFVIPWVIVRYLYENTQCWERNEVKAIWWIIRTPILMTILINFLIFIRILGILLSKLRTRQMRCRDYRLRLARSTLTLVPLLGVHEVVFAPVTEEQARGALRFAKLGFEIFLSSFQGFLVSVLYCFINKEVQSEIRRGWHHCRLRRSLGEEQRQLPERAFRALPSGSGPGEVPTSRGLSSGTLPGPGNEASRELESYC

T2: human neuropeptide Y2 receptor (human, UniProt P49146 1-381)
T2 sequence (looked up): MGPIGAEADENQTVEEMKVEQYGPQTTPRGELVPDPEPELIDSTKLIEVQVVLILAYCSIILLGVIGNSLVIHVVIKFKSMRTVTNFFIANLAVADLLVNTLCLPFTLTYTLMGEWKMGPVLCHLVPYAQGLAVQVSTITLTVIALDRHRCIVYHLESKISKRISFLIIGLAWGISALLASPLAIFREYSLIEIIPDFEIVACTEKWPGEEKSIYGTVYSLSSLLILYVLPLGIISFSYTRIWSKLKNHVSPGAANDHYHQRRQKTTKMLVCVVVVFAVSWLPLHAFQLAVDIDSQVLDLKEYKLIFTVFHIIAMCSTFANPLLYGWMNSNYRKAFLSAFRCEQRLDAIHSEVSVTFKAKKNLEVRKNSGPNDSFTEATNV

B1: Compound 155 (peptide)
peptide: Y[Aib]EGTFTSDYSI[Aib]LDEQAQ[Aib]AFVRHLINK([εLys-εLys-γGlu-γGlu-γGlu-γGlu-γGlu-C20 diacid])[Aib]TRQRY-NH2
B2: Compound 169 (peptide)
peptide: YXEGTFTSDLSIXLEKQAQXAFVRHLINKXTRQRY
modifications: Aib at 2, 13, 20, 30; Lys29 epsilon-amino: C18DA-gGlu-gGlu-gGlu-gGlu-gGlu-gGlu-eLys; C-terminal amide
B3: Compound 86 (peptide)
peptide: B2 peptide with L10Y, Y35X
modifications: Aib at 2, 13, 20, 30; Phe4F at 35; Lys29 epsilon-amino: C18DA-gGlu-gGlu-gGlu-gGlu-gGlu-gGlu-eLys; C-terminal amide
B4: Compound 139 (peptide)
peptide: B2 peptide with L10Y, L26A
modifications: Aib at 2, 13, 20, 30; Lys29 epsilon-amino: C18DA-gGlu-gGlu-gGlu-gGlu-gGlu-gGlu-eLys; C-terminal amide
B5: Compound 122 (peptide)
peptide: B2 peptide with L10Y, X13L
modifications: Aib at 2, 20, 30; Lys29 epsilon-amino: C18DA-gGlu-gGlu-gGlu-gGlu-gGlu; C-terminal amide
B6: Compound 144 (peptide)
peptide: B2 peptide with L10Y, A21S
modifications: Aib at 2, 13, 20, 30; Lys29 epsilon-amino: C18DA-gGlu-gGlu-gGlu-gGlu-gGlu-gGlu-eLys; C-terminal amide
B7: Compound 106 (peptide)
peptide: B2 peptide with L10Y
modifications: Aib at 2, 13, 20, 30; Lys29 epsilon-amino: C20DA-gGlu-gGlu-gGlu-gGlu-gGlu-AHX-AHX; C-terminal amide
B8: Compound 127 (peptide)
peptide: B2 peptide with L10Y, X30L
modifications: Aib at 2, 13, 20; Lys29 epsilon-amino: C18DA-gGlu-gGlu-gGlu-gGlu-gGlu-gGlu-eLys; C-terminal amide
B9: Compound 158 (peptide)
peptide: B2 peptide with L10Y, X30L
modifications: Aib at 2, 13, 20; Lys29 epsilon-amino: C18DA-gGlu-gGlu-gGlu-gGlu-gGlu; C-terminal amide
B10: Compound 126 (peptide)
peptide: B2 peptide with L10Y, X30V
modifications: Aib at 2, 13, 20; Lys29 epsilon-amino: C18DA-gGlu-gGlu-gGlu-gGlu-gGlu-gGlu-eLys; C-terminal amide
B11: Compound 150 (peptide)
peptide: B2 peptide with L10Y
modifications: Aib at 2, 20, 30; aMeL at 13; Lys29 epsilon-amino: C20DA-gGlu-gGlu-gGlu-gGlu-gGlu-gGlu-eLys; C-terminal amide
B12: Compound 159 (peptide)
peptide: B2 peptide with L10Y, X30A
modifications: Aib at 2, 13, 20; Lys29 epsilon-amino: C18DA-gGlu-gGlu-gGlu-gGlu-gGlu-gGlu-eLys; C-terminal amide
B13: Compound 153 (peptide)
peptide: B2 peptide with L10Y, E15D, H25Y
modifications: Aib at 2, 13, 20, 30; Lys29 epsilon-amino: C18DA-gGlu-gGlu-gGlu-gGlu-gGlu-gGlu-eLys; C-terminal amide
B14: Compound 170 (peptide)
peptide: B2 peptide with L10Y, X20E
modifications: Aib at 2, 13, 30; Lys29 epsilon-amino: C18DA-gGlu-gGlu-gGlu-gGlu-gGlu-gGlu-eLys; C-terminal amide
B15: Compound 102 (peptide)
peptide: B2 peptide with L10Y, E15D, V23I
modifications: Aib at 2, 13, 20, 30; Lys29 epsilon-amino: C18DA-gGlu-gGlu-gGlu-gGlu-gGlu-gGlu-eLys; C-terminal amide
B16: Compound 151 (peptide)
peptide: B2 peptide with L10Y, X20Y
modifications: Aib at 2, 13, 30; Lys29 epsilon-amino: C18DA-gGlu-gGlu-gGlu-gGlu-gGlu-gGlu-eLys; C-terminal amide
B17: Compound 93 (peptide)
peptide: B2 peptide with G4A, L10Y
modifications: Aib at 2, 13, 20, 30; Lys29 epsilon-amino: C18DA-gGlu-gGlu-gGlu-gGlu-gGlu-gGlu-eLys; C-terminal amide
B18: Compound 95 (peptide)
peptide: B2 peptide with L10Y, K16G
modifications: Aib at 2, 13, 20, 30; Lys29 epsilon-amino: C18DA-gGlu-gGlu-gGlu-gGlu-gGlu-gGlu-eLys; C-terminal amide
B19: Compound 142 (peptide)
peptide: B2 peptide with L10Y, S11A
modifications: Aib at 2, 13, 20, 30; Lys29 epsilon-amino: C18DA-gGlu-gGlu-gGlu-gGlu-gGlu-gGlu-eLys; C-terminal amide
B20: Compound 143 (peptide)
peptide: B2 peptide with L10Y, Q17A
modifications: Aib at 2, 13, 20, 30; Lys29 epsilon-amino: C18DA-gGlu-gGlu-gGlu-gGlu-gGlu-gGlu-eLys; C-terminal amide
B21: Compound 140 (peptide)
peptide: B2 peptide with L10Y
modifications: Aib at 2, 13, 20, 30; Lys29 epsilon-amino: C18DA-gGlu-gGlu-gGlu-gGlu-gGlu-OEG; C-terminal amide
B22: Compound 138 (peptide)
peptide: Y[Aib]EGTFTSDYSI[Aib]LDEQAQ[Aib]AFVRHLINK([εLys-γGlu-γGlu-γGlu-γGlu-γGlu-C20 diacid])[Aib]TRQRY-NH2
B23: Compound 148 (peptide)
peptide: Y[Aib]EGTFTSDYSI[Aib]LEKQAE[Aib]AFVRHLINK([εLys-γGlu-AEEA-γGlu-γGlu-γGlu-γGlu-C20 diacid])[Aib]TRQRY-NH2
B24: Compound 133 (peptide)
peptide: Y[Aib]EGTFTSDYSI[Aib]LEKQAQ[Aib]AFVRHLINK([γGlu-γGlu-γGlu-γGlu-γGlu-γGlu-TRX-C20 diacid])[Aib]TRQRY-NH2
modifications: reading uncertain
B25: Compound 99 (peptide)
peptide: Y[Aib]EGTFTSDYSI[Aib]LEKQAQ[Aib]AFVRHLINK([AEEA-γGlu-γGlu-γGlu-γGlu-γGlu-γGlu-C20 diacid])[Aib]TRQRY-NH2
B26: Compound 135 (peptide)
peptide: Y[Aib]EGTFTSDLSI[Aib]LEKQAQ[Aib]AFVRHLINK([εLys-γGlu-γGlu-γGlu-γGlu-γGlu-γGlu-γGlu-C20 diacid])[Aib]TRQRY-NH2
B27: Compound 121 (peptide)
peptide: Y[Aib]EGTFTSDYSI[Aib]LEKQAQ[Aib]AFVRHLINK([εLys-γGlu-γGlu-γGlu-γGlu-γGlu-γGlu-γGlu-C18 diacid])[Aib]TRQRY-NH2
B28: Compound 113 (peptide)
peptide: Y[Aib]EGTFTSDYSI[Aib]LDKQAQ[Aib]EFVRHLINK([εLys-γGlu-γGlu-γGlu-γGlu-γGlu-C18 diacid])[Aib]TRQRY-NH2
B29: Compound 136 (peptide)
peptide: Y[Aib]EGTFTSDYSI[Aib]LEKQAQ[Aib]AFVRHLINK([γGlu-γGlu-AEEA-γGlu-γGlu-γGlu-γGlu-C20 diacid])[Aib]TRQRY-NH2

How the values were obtained:
human GIP receptor = target: T1, human GIP receptor; assay: cell-based or functional assay
[1] = target: T2, human neuropeptide Y2 receptor; assay: cell-based or functional assay

Row | Binder | EC50, CreLuc reporter, 0.5% hP (human GIP receptor) [nM] | EC50, CreLuc reporter, 100% hP (human GIP receptor) [nM] | EC50, CreLuc reporter, 0.5% hP [1] [nM] | EC50, CreLuc reporter, 100% hP [1] [nM]
1 | B1 | 0.7 | 6.1 | 6 | 63.1
2 | B2 | 0.4 | – | – | –
3 | B3 | 0.3 | 5.9 | 33.2 | 162
4 | B4 | 12.2 | 22.3 | – | 22.7
5 | B5 | 0.1 | 4.5 | 60.8 | 284
6 | B6 | 0.4 | 4.8 | – | –
7 | B7 | – | 4.7 | 7.1 | 41.7
8 | B8 | – | 16.7 | 10.3 | 76.9
9 | B9 | 0.5 | 14.4 | 26 | 149
10 | B10 | 0.4 | – | – | –
11 | B11 | – | 2.8 | – | 90.7
12 | B12 | 0.2 | – | 11.5 | 57.5
13 | B13 | 0.1 | – | 40 | 65.5
14 | B14 | 0.4 | – | 43.8 | 244
15 | B15 | 0.1 | 2.8 | – | –
16 | B16 | 0.5 | 5.6 | 32.6 | 89.8
17 | B17 | – | 17.6 | – | 24.8
18 | B18 | – | 9.3 | 58 | 96.3
19 | B19 | 0.3 | 3.4 | 17.4 | 31.8
20 | B20 | 0.3 | – | – | –
21 | B21 | – | 8 | 22 | 141
22 | B22 | 0.5 | 11.5 | – | –
23 | B23 | 0.8 | – | – | –
24 | B24 | – | 3.4 | 44.9 | 246
25 | B25 | 0.5 | 9 | 16.7 | 125
26 | B26 | 0.5 | 5.8 | 18.8 | 47.8
27 | B27 | – | 2.8 | 13.8 | –
28 | B28 | 0.2 | 5.5 | – | –
29 | B29 | 0.5 | 9.1 | 38.5 | 123
